{"source": "patent US20250382602", "conditions_in_all_cases": "nanopore translocation, FLO-MIN112; background mutations not given", "key": {"[1]": {"target": "T1, Dda 1993 354Q 354Q (Enterobacteria phage T4) (UniProt P32270)", "T1 sequence": "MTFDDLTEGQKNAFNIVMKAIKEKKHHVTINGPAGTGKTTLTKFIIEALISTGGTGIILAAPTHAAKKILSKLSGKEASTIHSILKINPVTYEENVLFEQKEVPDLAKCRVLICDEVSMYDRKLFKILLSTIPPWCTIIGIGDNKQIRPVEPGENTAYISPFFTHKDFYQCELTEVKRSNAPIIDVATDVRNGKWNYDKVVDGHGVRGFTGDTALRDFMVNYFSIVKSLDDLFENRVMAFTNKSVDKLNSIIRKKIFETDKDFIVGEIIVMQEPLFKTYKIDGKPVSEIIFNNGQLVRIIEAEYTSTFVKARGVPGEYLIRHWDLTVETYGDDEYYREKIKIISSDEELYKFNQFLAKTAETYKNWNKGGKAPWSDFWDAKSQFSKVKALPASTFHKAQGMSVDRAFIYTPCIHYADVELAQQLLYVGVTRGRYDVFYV"}, "[2]": {"target": "T2, Dda 1993 361I 361I (Enterobacteria phage T4) (UniProt P32270)", "T2 sequence": "T1 sequence with Q354L, E361I"}, "[3]": {"target": "T3, Dda 1993 351I 351I (Enterobacteria phage T4) (UniProt P32270)", "T3 sequence": "T1 sequence with K351I, Q354L"}, "[4]": {"target": "T4, Dda 1993 Y350I Y350I (Enterobacteria phage T4) (UniProt P32270)", "T4 sequence": "T1 sequence with Y350I, Q354L"}, "[5]": {"target": "T5, Dda 1993 361Q 361Q (Enterobacteria phage T4) (UniProt P32270)", "T5 sequence": "T1 sequence with Q354L, E361Q"}, "[6]": {"target": "T6, Dda 1993 K358E K358E (Enterobacteria phage T4) (UniProt P32270)", "T6 sequence": "T1 sequence with Q354L, K358E"}}, "note": "Changes are numbered by the printed parent chain.", "data": [{"substance": "barcoded 3.6 kb DNA analyte ligated to sequencing Y adaptor", "values": [{"measurement": "activity (bps speed delta vs control)", "setting": "[1]", "value": 0.09}, {"measurement": "activity (bps speed delta vs control)", "setting": "[2]", "value": 21.6}, {"measurement": "activity (bps speed delta vs control)", "setting": "[3]", "value": -9.76}, {"measurement": "activity (bps speed delta vs control)", "setting": "[4]", "value": 2.22}, {"measurement": "activity (bps speed delta vs control)", "setting": "[5]", "value": 13.8}, {"measurement": "activity (bps speed delta vs control)", "setting": "[6]", "value": -7.28}]}]}
